Reference: IntAct's records for PubMed 22505024

B1: ERBB receptor feedback inhibitor 1 (Homo sapiens), Q9UJM3 (parent)
chain: MSIAGVAAQEIRVPLKTGFLHNGRAMGNMRKTYWSSRSEFKNNFLNIDPITMAYSLNSSAQERLIPLGHASKSAPMNGHCFAENGPSQKSSLPPLLIPPSENLGPHEEDQVVCGFKKLTVNGVCASTPPLTPIKNSPSLFPCAPLCERGSRPLPPLPISEALSLDDTDCEVEFLTSSDTDFLLEDSTLSDFKYDVPGRRSFRGCGQINYAYFDTPAVSAADLSYVSDQNGGVPDPNPPPPQTHRRLRRSHSGPAGSFNKPAIRISNCCIHRASPNSDEDKPEVPPRVPIPPRPVKPDYRRWSAEVTSSTYSDEDRPPKVPPREPLSPSNSRTPSPKSLPSYLNGVMPPTQSFAPDPKYVSSKALQRQNSEGSASKVPCILPIIENGKKVSSTHYYLLPERPPYLDKYEKFFREAEETNGGAQIQPLPADCGISSATEKPDSKTKMDLGGHVKRKHLSYVVSP
partner: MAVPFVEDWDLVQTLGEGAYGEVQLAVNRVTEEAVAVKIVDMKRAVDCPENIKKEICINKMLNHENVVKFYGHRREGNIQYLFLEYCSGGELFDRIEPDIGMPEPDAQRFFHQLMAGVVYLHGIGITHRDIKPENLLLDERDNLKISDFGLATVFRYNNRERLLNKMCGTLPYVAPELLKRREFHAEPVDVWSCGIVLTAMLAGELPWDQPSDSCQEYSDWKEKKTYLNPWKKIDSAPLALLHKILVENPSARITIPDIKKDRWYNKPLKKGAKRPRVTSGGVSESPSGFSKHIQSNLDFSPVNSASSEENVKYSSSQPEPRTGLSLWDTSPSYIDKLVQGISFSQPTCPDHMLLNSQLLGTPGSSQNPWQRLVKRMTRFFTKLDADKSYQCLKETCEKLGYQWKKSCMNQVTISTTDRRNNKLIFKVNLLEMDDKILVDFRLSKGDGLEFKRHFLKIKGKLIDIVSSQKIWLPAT

Variants of: B1
Details: with chk1_human CHEK1, O14757

Row | effect of a mutation on the interaction | Variant
1 | decreasing interaction | S302A
2 | decreasing interaction | S369A
3 | decreasing interaction | S334A

Variants of: B1
Details: with chk1_human CHEK1, O14757
Remark: another data set of the same source

Row | effect of a mutation on the interaction | Variant
4 | decreasing interaction | S249A
5 | decreasing interaction | S251A
